Source: paper PMC12432404

Molecular target: α‐synuclein (UniProt P37840)

Sequence of HspA8 (P11142 whole entry): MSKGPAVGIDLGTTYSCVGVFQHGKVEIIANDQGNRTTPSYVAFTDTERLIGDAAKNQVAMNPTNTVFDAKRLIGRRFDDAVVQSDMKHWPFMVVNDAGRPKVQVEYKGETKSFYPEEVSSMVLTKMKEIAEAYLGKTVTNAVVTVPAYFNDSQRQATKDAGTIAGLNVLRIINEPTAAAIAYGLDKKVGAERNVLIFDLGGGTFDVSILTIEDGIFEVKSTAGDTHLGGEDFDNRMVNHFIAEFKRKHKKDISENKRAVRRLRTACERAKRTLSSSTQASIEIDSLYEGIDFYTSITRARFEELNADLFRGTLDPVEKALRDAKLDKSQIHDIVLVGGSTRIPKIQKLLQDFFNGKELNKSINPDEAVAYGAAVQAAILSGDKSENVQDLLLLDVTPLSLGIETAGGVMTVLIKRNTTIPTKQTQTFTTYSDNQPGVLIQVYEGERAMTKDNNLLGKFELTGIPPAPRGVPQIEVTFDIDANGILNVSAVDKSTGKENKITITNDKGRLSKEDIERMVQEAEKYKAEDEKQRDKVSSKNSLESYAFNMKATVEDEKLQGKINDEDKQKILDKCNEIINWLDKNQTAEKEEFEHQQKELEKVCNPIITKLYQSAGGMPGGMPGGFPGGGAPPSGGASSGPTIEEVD
Sequence of DNAJB1 (P25685 whole entry): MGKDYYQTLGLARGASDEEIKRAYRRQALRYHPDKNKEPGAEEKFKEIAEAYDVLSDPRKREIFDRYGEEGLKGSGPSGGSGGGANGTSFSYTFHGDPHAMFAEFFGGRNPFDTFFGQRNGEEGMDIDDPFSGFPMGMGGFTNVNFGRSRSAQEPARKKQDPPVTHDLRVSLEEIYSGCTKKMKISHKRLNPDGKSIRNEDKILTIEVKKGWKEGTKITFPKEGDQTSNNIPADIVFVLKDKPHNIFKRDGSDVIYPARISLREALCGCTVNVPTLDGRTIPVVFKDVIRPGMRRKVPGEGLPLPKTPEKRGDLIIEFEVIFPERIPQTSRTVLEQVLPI

Thioflavin‐T fluorescence: elongation of α‐synuclein seeds (2 μM) by monomeric α‐synuclein (0–20 μM) with and without the Hsp70 chaperones (2 μM HspA8, 1 μM DNAJB1, 0.2 μM Hsp110), 30°C [fold]	Substance
3	HspA8 (from UniProt P11142 1-646) (natural protein)
3	DNAJB1 (from UniProt P25685 1-340) (natural protein)
